Laboratory results as given in patent EP1724347A2.
Values belong to the substance of their own block, whether it stands above or below them.

Experiments:
protein kinase A [1] = assay: cell-based or functional assay
protein kinase A [2] = assay: method not stated
GST-KIX = assay: fluorescence polarization
[3] = target: GST-hDM2 (residues 1-188) (human) (UniProt Q00987); assay: fluorescence polarization, competition format
[4] = target: GST-hDM2 (residues 1-188) (human) (UniProt Q00987); assay: 400 nM GST-hDM2 and 10 nM p53AD-Flu in the absence of pZutshi
[5] = target: GST-hDM2 (residues 1-188) (human) (UniProt Q00987); assay: fluorescence polarization, 25 nM labeled peptide with varying GST-hDM2, 4°C

GST-hDM2 (residues 1-188) (human), sequence (Q00987 1-188): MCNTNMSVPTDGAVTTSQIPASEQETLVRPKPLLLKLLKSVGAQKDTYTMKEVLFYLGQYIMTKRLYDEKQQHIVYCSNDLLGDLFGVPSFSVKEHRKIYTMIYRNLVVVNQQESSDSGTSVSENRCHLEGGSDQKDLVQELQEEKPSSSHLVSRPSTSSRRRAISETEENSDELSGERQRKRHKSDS
GST-KIX, sequence (P45481 586-665): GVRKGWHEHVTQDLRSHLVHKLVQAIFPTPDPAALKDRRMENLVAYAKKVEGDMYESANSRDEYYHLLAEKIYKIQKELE

Substance: PKI (peptide)
IC50 (inhibition of PKA) (protein kinase A [1]): 0.008 µM
Kd (protein kinase A [2]): 0.0312 µM

Substance: Phosphorylated KID31 (peptide)
Kd (GST-KIX): 1.2 µM

Substance: p53AD peptide (residues 15-33), not labeled
Kd [3]: 1200 µM

Further lines, results first:

Kd (GST-KIX): 48 µM
Substance: Phosphorylated KID20 (peptide)

percent bound [4]: 60%
Kd [5]: 0.261 µM
Substance: p53AD-Flu (peptide)
